Test results reported in US20240182540A1.

Biological target: EGFRvIII variant of EGFR, expressed on CT2AvIII cells (UniProt P00533)
Test: cell-based or functional assay

third-generation EGFRvIII-targeting CAR (anti-EGFRvIII scFv clone 139 fused to CD8 hinge and TM, CD28, 4-1BB and CD3zeta), on transduced mouse T cells
percent survival of tumor cells, in vitro cytotoxicity against a 70:30 mixture of CT2A:CT2AvIII, 24 h co-culture: 75%
